The labels stand for the following.
B1: VH:VL chains; a variant is named by its letters at X, in order (parent)
chain 1: QVQLVQSGAEVKKPGASVKVSCKASGYTFTDYXMHWVRQAPGQGLEWMGXVNPNXXXTTYNQKFEGRVTMTTDTSTSTAYMELRSLRSDDTAVYYCARXNXLDXWGQGTTVTVSS
chain 2: DIQMTQSPSSLSASVGDRVTITCSVSSSVSSIYLHWYQQKPGKAPKLLIYSTSNLASGVPSRFSGSGSGTDFTLTISSLQPEDFATYYCQVYSGYPLTFGGGTKVEIK

The values below come from the emibetuzumab library of Makowski et al. (2022).

The variants in this data set derive from B1. Description: yeast display scFab, FACS + sequencing. An outline of the steps: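 Non-specific binding was called from deep sequencing of sorted yeast cells displaying a heavy-chain CDR mutant scFab library. Cells labelled with anti-Myc and biotinylated ovalbumin (260 μg/mL in PBSB, 3 h, room temperature) or soluble membrane proteins (130 μg/mL, 20 min on ice) were FACS-sorted, collecting the top 25% and bottom 10% of binders from two replicates. A sequence was positive when present in ≥3 of 4 pooled positive samples and absent from all negatives, and negative under the converse rule.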
In the case of YRARGAGV, the non-specific binding call is “binds”.

With YRARGAGS, the non-specific binding call is recorded as “binds”.

Consider YRARGAGF, for which the non-specific binding call was “binds”.

As for YRARGAGY, the non-specific binding call is given as “binds”.

YRARGAGA: the non-specific binding call was “binds”.

With FRAGSSGV, the non-specific binding call was “binds”.

Regarding SRATAYSD, the non-specific binding call was “binds”.

As to VRATGSVY, the non-specific binding call is given as “binds”.

Take YRAGTAVS: the non-specific binding call is on record as “binds”.

Turning to YRAGTAVD, the non-specific binding call is “binds”.

In the case of YRAGGVAV, the non-specific binding call is “binds”.

Take ARAGSFWA: the non-specific binding call is on record as “binds”.

YRAGSAAA: the non-specific binding call is “binds”.

For YRAGSAAD, the non-specific binding call is on record as “binds”.

For the variant YRAKDALA, the non-specific binding call was “no binding”.

Consider FRATSAVD, for which the non-specific binding call is recorded as “binds”.

Turning to FREGGALD, the non-specific binding call was “binds”.

In the case of YRARGVGV, the non-specific binding call is on record as “binds”.

YRARGVGA: the non-specific binding call is “binds”.

With VRAKGSAD, the non-specific binding call is recorded as “binds”.

Consider VREGAAAV, for which the non-specific binding call is listed as “no binding”.

YRARGASA: the non-specific binding call was “binds”.

With YRARSAGV, the non-specific binding call is reported as “binds”.

For the variant YRARSAGA, the non-specific binding call is listed as “binds”.

As to YRARSAGY, the non-specific binding call is reported as “binds”.

On to YRARSAGF, for which the non-specific binding call is “binds”.

FREKGDLA: the non-specific binding call was “no binding”.

For VRAKGAGY, the non-specific binding call is listed as “binds”.

In the case of SREAADAV, the non-specific binding call was “no binding”.

On to YREEGDGV, for which the non-specific binding call is listed as “no binding”.

Take YRARSDVF: the non-specific binding call is on record as “no binding”.

For FRAGGSVD, the non-specific binding call is recorded as “binds”.

On to SRARGAGA, for which the non-specific binding call was “binds”.

Regarding YRARGDGV, the non-specific binding call was “no binding”.

Regarding YRARGDLD, the non-specific binding call is recorded as “binds”.

Take YRAGSSGA: the non-specific binding call is on record as “binds”.

In the case of YRAGSSGD, the non-specific binding call was “binds”.

As to YRAGSSGV, the non-specific binding call is given as “binds”.

On to FRAGGSSV, for which the non-specific binding call is recorded as “binds”.

Regarding VRAGGSVA, the non-specific binding call is given as “binds”.

For YRAKGSWD, the non-specific binding call is recorded as “binds”.

For YRAKGAGD, the non-specific binding call is “binds”.

For the variant YRAKGAGV, the non-specific binding call was “binds”.

As to YRAKGAGS, the non-specific binding call is given as “binds”.

Turning to YRAKGAGA, the non-specific binding call is listed as “binds”.

As to YRAGGYGY, the non-specific binding call was “binds”.

Consider YRAGGYGF, for which the non-specific binding call was “binds”.

Regarding YRAGGYGD, the non-specific binding call was “binds”.

Consider YRAKGSSS, for which the non-specific binding call is recorded as “binds”.

For the variant VREGDDAV, the non-specific binding call is given as “no binding”.

Turning to YRAGTSGD, the non-specific binding call is reported as “binds”.

Consider SREAAAVY, for which the non-specific binding call is “no binding”.

In the case of FRARGSWV, the non-specific binding call is “binds”.

For FREGSASV, the non-specific binding call is given as “binds”.

Consider AREGDDVA, for which the non-specific binding call is “no binding”.

In the case of YREETSGA, the non-specific binding call is given as “binds”.

As to YRARGYGV, the non-specific binding call is recorded as “binds”.

For YRARSASV, the non-specific binding call was “binds”.

As for YRARSASA, the non-specific binding call is “binds”.

With YREGGSVD, the non-specific binding call was “no binding”.

Turning to FREGASWD, the non-specific binding call is “binds”.

For YRAKSSGV, the non-specific binding call is given as “binds”.

Turning to YRAGGVVA, the non-specific binding call was “binds”.

For the variant YRARSAWS, the non-specific binding call is given as “binds”.

As for YRARSAWV, the non-specific binding call was “binds”.

As for YRARSAWA, the non-specific binding call was “binds”.

Turning to VRARGDVS, the non-specific binding call is “no binding”.

For the variant DRARTFVA, the non-specific binding call is recorded as “binds”.

For the variant AREKGSAA, the non-specific binding call is recorded as “binds”.

Regarding FRAKGSAD, the non-specific binding call is on record as “binds”.

In the case of YRAKSSSS, the non-specific binding call was “binds”.

On to FRAGSAVV, for which the non-specific binding call is reported as “binds”.

With FRAGSAWS, the non-specific binding call was “binds”.

As to FRAGSSWD, the non-specific binding call is listed as “binds”.

For YREEGDVF, the non-specific binding call is on record as “no binding”.

Take YRARGFGV: the non-specific binding call is on record as “binds”.

For YRARGFGA, the non-specific binding call is given as “binds”.

On to YRAKGVGA, for which the non-specific binding call is recorded as “binds”.

DREEGAGA: the non-specific binding call is on record as “no binding”.

Regarding DREEGAGV, the non-specific binding call is recorded as “no binding”.

Regarding DREEGAGS, the non-specific binding call was “no binding”.

In the case of ARARGSGA, the non-specific binding call is listed as “binds”.

As to YRARSSVV, the non-specific binding call is recorded as “binds”.

Turning to YRARSSVA, the non-specific binding call is “binds”.

Regarding VRATGYWA, the non-specific binding call is given as “binds”.

In the case of SREGGFAA, the non-specific binding call is on record as “binds”.

Take YRAKSALV: the non-specific binding call is listed as “binds”.

On to YREGGDGA, for which the non-specific binding call is reported as “no binding”.

As for VREGDYLS, the non-specific binding call is on record as “binds”.

For YRARGAVS, the non-specific binding call was “binds”.

In the case of YRARGAVA, the non-specific binding call is reported as “binds”.

Consider VRARGFVV, for which the non-specific binding call is “binds”.

SRARDFGY: the non-specific binding call is given as “no binding”.

Consider YRAGGYAA, for which the non-specific binding call is reported as “binds”.

Take YRAKGSGD: the non-specific binding call is recorded as “binds”.

Consider YRAKGSGV, for which the non-specific binding call is reported as “binds”.

For the variant FRAGGSLY, the non-specific binding call is “binds”.

In the case of FRAGGSLF, the non-specific binding call is on record as “binds”.

As for FRARGAAY, the non-specific binding call is reported as “binds”.

For the variant FRARGAAV, the non-specific binding call is given as “binds”.

Consider VRARGDGY, for which the non-specific binding call is reported as “no binding”.

Regarding AREEGFSV, the non-specific binding call is “no binding”.

SREAADWA: the non-specific binding call was “no binding”.

In the case of SREAADWV, the non-specific binding call is reported as “no binding”.

For VRAGSSLD, the non-specific binding call is “no binding”.

For YREGGSGV, the non-specific binding call was “binds”.

Take SREAASLA: the non-specific binding call is “no binding”.

ARAGSAWA: the non-specific binding call is given as “binds”.

Consider VREAADSF, for which the non-specific binding call is given as “no binding”.

As for YRARGSAA, the non-specific binding call is recorded as “binds”.

In the case of YRARGSAD, the non-specific binding call is “binds”.

For YRARGSAV, the non-specific binding call is “binds”.

With DREEGDGV, the non-specific binding call is “no binding”.

As to DREEGDGS, the non-specific binding call was “no binding”.

As to FREEGFSV, the non-specific binding call is reported as “no binding”.

Consider FREKDSAD, for which the non-specific binding call was “no binding”.

Take SREEGFSV: the non-specific binding call was “no binding”.

Regarding FREGGAVS, the non-specific binding call is reported as “binds”.

For VRARGAAY, the non-specific binding call is given as “binds”.

For VRARGAAD, the non-specific binding call is listed as “no binding”.

Consider YRAGSSWD, for which the non-specific binding call is “binds”.

On to DREEGSSY, for which the non-specific binding call is given as “no binding”.

In the case of DREEGSSA, the non-specific binding call is recorded as “no binding”.

In the case of YREGDFVD, the non-specific binding call is reported as “binds”.
